Measurements from the supplement of paper PMC12764529.

assay: folding stability dG unfold (combined trypsin and chymotrypsin); higher = more stable
Description: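 Folding stability of de novo designed mini-proteins (<80 aa, no Cys; designed by TrROS, TrMRF, ProteinMPNN and the joint model) was measured by cDNA display proteolysis with trypsin and chymotrypsin. Each protease was used at 11 concentrations in a threefold dilution series plus a no-protease condition. K50 was inferred by Bayesian fitting of sequencing counts, and dG unfold was derived against a sequence-predicted unfolded-state K50 (Tsuboyama et al. method). Sequences shown include variable-length N-terminal GS-type padding (SAGGSAGG...) inside a display construct carrying a PA tag. Rows were kept only if the AF2 dimer inter-PAE was >15, to exclude likely homo-oligomers.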

Folding stability dG unfold, < -1 kcal/mol:
SAGGSAGGWIEIDPNDGKLEILYPPGMNPDELTDFIEEFGFPFKPKSVEYNPDNGMRKVEFKFKSAGGSAGG [r6_396_TrROS]
SAGGSAGGSSLAEEIARLLGLESETLSESVSPTPRSLTLTRFKPPEDGELIVFYDGEVPTILPSAGGSAGGS [r12_279_JUSTAS]
SAGMTTTETIEFPDSTTATVTSVEEGPTPNGTPVTTRTVTVTTYTPLRDADGKLLGEVPQTSTSTLTVASAG [r5_476_JUSTAS]
SAGGMPPGQKKTITLEMNEPGYFRIHNPNGGQEREFPINPDQSPSEFLDWAEDFAEDYGYPVEIEWHSAGGS [r16_446_TrROS]
SSITFPVPKEEKEPDPDGDPHPRREPKPVPIPPDAIRDQIYNMIRTELRDAGLPDMTEEDIDDPEFIDRLSA [r9_263_TrROS]
SAGGSAGGSMNEVSEEEAIAEAVAKHAPDEPVTYELKDNKKIVVNVNGADPANVSIEVIPIKNSAGGSAGGS [r12_648_JUSTAS]
SAGGSAGGSSWDEVREIAREARKEGFPMVSIRYDDKNTHQINFEDGPIEPLPNPDNVKIEIMRSAGGSAGGS [r20_44_TrROS]
SAGGSAGGSMKYLVRFPEGGSLPFPDGSSVPMKPGEVLEVESPADVEALKKLAPGRDIEVEPVSAGGSAGGS [r12_987_TrMRF]
SAGGSAGGSAGKRIIINMPAEQAIDWAREMLPPNQPIEIFNPDHGKTREFPIPPPSPDEKSAGGSAGGSAGG [r11_163_TrROS]
SAGITIDELRNQPPKKRVTEVNWNPNQGNYRVEVVRPDPDGKPKKHEYEVNSPQQIRDKLKNGFDYIHISAG [r5_905_TrROS]
SAGGSAGGSAREITIMVPPDDPNLTIEEAKDLLQPWGIKKVEIEPHPDGYYIVEIRVPPGLSAGGSAGGSAG [r3_335_TrROS]
SAGGPMREYTIKLPGKKITINEMPNPNGNEMTQVSVRDGGEPKRPVNMPNDNADEFAKKPGIKPDDIVSAGG [r13_108_TrROS]
SAGGGMRPVPVSEIIAKLKEEGYTVSKVSVYRPGSGEKLGTYDPNTPVVIPADEPDAVIEPVVEPKGSAGGS [r8_243_JUSTAS]
SAGGSAGGSPIPVPLVIFFPDSETTEIVPATPELFEALAAELAALGPVVRRGPERTMTITVPRSAGGSAGGS [r12_292_JUSTAS]
SAGGSAGGSAGGMIYPPDEVLEKTTKVEVELPNETGKTITKTIVTKTYAESGKSTIETAGSAGGSAGGSAGG [r17_266_JUSTAS]
SAGGSAGGSGMAVVEVDITGPTSTSEEEAQARAEALAAEIAAASDSADVRATVRFSRVPPELPSAGGSAGGS [r12_522_JUSTAS]
SAGGSAGGSAGMVETTSEEEAAAVIAEARAAGVPVTLVLKNPDGTTVTTPVEVVVPPDAPSAGGSAGGSAGG [r17_462_JUSTAS]
SAGGSAGGSAGGSLNISVSSEPLPGDLLVEKGEFPSPKTLTTLVEPGTGVVTTTTEAASSAGGSAGGSAGGS [r10_237_JUSTAS]
SAGGSAGGSSPKRTIEITLPKDASEEELQATANAIAKELGAPNVQVEVSPVPEDYRLVKVIVESAGGSAGGS [r20_208_JUSTAS]
SAGGSAPENDPWVWRVKIPYKKKNPNGEPERREREITFPFKSPEDAENFRDALREDGAEIEPVEPMSAGGSA [r15_117_TrROS]
SAGGSAGGSAKIIVWGRTPEGAKEKAKEFADNIQKEMQENGMPPKNIKIPIEIFDPEAMPDSAGGSAGGSAG [r3_249_TrROS]
SAGGSMETIELTINLGSKTITKTEEVSPGREEELIEKIREEGYPEIKVDKITIKPPDGSTERTIGLKSAGGS [r8_219_JUSTAS]
SAGGSAGGSGEFLSDLPPDWEVSTEPLPSDTVRYTVTAPTGPVSAVSLPVGDREVRTSATPPVSAGGSAGGS [r20_50_JUSTAS]
SAGGSAGGSAGPRVTLTPDPNSDYVLVTTYPGDGSSTTSNVPVSELEKVRKELPADFTLASAGGSAGGSAGG [r11_569_JUSTAS]
SAGGSAGGSAGLLPPGARVRLTLRAPGEPEELEFTIPASVPSVEELIERHPPVLAVEVVGSAGGSAGGSAGG [r11_157_JUSTAS]
SAGGSMTTTLDFSDDSTTTITTTPTPDSSSVRSITTTDASGNPLSSTTLNFDPQGNVTETTTSSAPSAGGSA [r2_260_JUSTAS]
SAGGSAGGSAGGTIEGLPKEQLRDIFKDHGMPPDEFPPGQPVQFNIPNKNPIKVRVTDLSAGGSAGGSAGGS [r10_623_TrROS]
SAGGSAGGSAGITITQNPDGPVRIMWKHPNGKPVNEGDIKPDEAEKFADKNGMRPVSIEPSAGGSAGGSAGG [r11_521_TrROS]
SAGGSAGGSSMPSDVPVDIPVKVTRTVPNGPTSEEELVLSTTRPDASIEEVLEELKKKGWTIESAGGSAGGS [r20_27_JUSTAS]
SAGGSAGGSAGGSMPTATLVEKEKDPVEDIITYKINTPPDKTEIIKYSPENPISESDIISAGGSAGGSAGGS [r4_481_JUSTAS]
SAGGSAGGGMMKTITITESVVLEVRPVTSENGRVYPEVLSEVLKTTTVPFPPGNEEEIEKAIKESAGGSAGG [r6_738_JUSTAS]
SAGGSAGGSPPPKVKVKKFHRDPPNGYVRANIEFPDKRDIEIQMENMPPDQAEEKAKNLAKKLSAGGSAGGS [r20_181_TrROS]
SAGGSAGGSSPPDATIPREEAEKYVKEKVREENLKAGKPLKKVKKLIVKEDPNSDNVKVTVIESAGGSAGGS [r12_583_JUSTAS]
SAGGSAGGSAGGKIKLAAANPKVAKELAKILEKELEEKGYKLKPNLKIEVLPAKPDPKLASAGGSAGGSAGG [r7_965_TrMRF]
SAGGSAGGSAGGPETRVVYEPLPDGTSKIVEVEAAEDYVTVPVPFPNGGEAVFTVKPGELSAGGSAGGSAGG [r7_829_TrMRF]
SMITPEDLEALKAAGVELVSRDPNNRVTLFDPATNTPIELEVEEVPPPPPVTFPGNGPSVEERRAWLERRSA [r9_649_JUSTAS]
SAGGSAGGSSDIKIYEIPEKGEIVVERPPSEKVTIDINNHPLEGSLTPLPGNKYLWKVKIKSPSAGGSAGGS [r12_970_JUSTAS]
SAGGSAGGSAGGEEERMWMFSVRVPDKPVMFPFDDLEKLAEEKGVPVKIEWARMPADDLKSAGGSAGGSAGG [r7_185_TrROS]
SAGGSMKPSELANLIAEKLREKVDPNKTVRIVLEVGEGPVEFEIPSGKKIDIPENVPIKGYKVEVGSAGGSA [r2_391_TrMRF]
SAGGSAGGSAGSTEIGVYKLEGTDKVLVLAKKPNGSEVPVEFPASVTPEEAVEKAKKVVSSAGGSAGGSAGG [r17_161_TrMRF]
SAGGSAGGSGKKYILRFKNPEKARSFAKPLGLKVKPGDDLPVDDPEKFLKSLPLLKDIVVEDKSAGGSAGGS [r12_571_TrMRF]
SAGGITLKEIREALKKGHMMRIEGPDGGKRRIPIDDLKDMPGIKPGMPLEDLKVRKIEWVPPDDGQPMSAGG [r13_587_TrROS]
SAGGSAGGSAGMEEIKERYRKELEAEGRPVKEIKAEKLPPTNTIVVTLDFENKPIVIPLPSAGGSAGGSAGG [r11_279_JUSTAS]
SAGGSAGGSAGGSPVYTLERTLPDGRPVRIEISGDEATITLESPEGGERTEKVSRSEILESAGGSAGGSAGG [r7_653_JUSTAS]
SAGGSAGGSAGGMIHIDPTPNGWKASVMNPNNGKPREIPFPPDNIPKLIPKGIDYVHIHPSAGGSAGGSAGG [r7_266_TrROS]
SAGGEISIMFKSPEGVKEIAEELEENGLEVDVSPVPGYWMVRIQPKPKPPPTPEAAEKAQRDPDQANKSAGG [r13_8_TrROS]
SAGGSAGGSTAEEVAEALGFEEAEVTPTGLVEVRKLPNGGYARAYRYTLKLRSPDGTERTFPISAGGSAGGS [r12_221_TrMRF]
SAGGSAGGSAGWEMLRMIKENAKPGKPTTITIHPNFPMEEINKELIEDAPIDDVEYTPMPSAGGSAGGSAGG [r11_524_TrROS]
SAGGSAGGSAGGMKITVKTSYDPSRPVFYEEVYPPGGEPISRKVIEIPPAEPKLIEELLSAGGSAGGSAGGS [r10_717_JUSTAS]
SAGGMTKTYDPNGRTITELPDGTVVETTVDPSKPLTKVTTTTVEGDNVVSSTEILQEVSLPETSPYLSAGGS [r8_142_JUSTAS]
SAGGSAGGSASSTVLETEEEPVGKVTTEKVLVPRPDGTPVLRTKLVYRPKDGSLTSETTSLSAGGSAGGSAG [r3_94_JUSTAS]
SAGGSAGGSAGGGSPNVVVEKKLTVNLPKDVKLDFPPEYEVTVTKGKNTYKITEKIIVNKSAGGSAGGSAGG [r7_584_JUSTAS]
SAGGSAGGSAGMKTFTAPSGEKLVEVTIKTKNKEISVTVPPEEGGEAVAKKYGVSKKDIASAGGSAGGSAGG [r11_1039_JUSTAS]
SAGGSAGGSDPNIKVEIWHPNNGQPRTFPAGDSIDELAENMPGPVQIKIEYPGKEKTLMIPFKSAGGSAGGS [r12_1056_TrROS]
SAGGSAGGSAMDPDDQLPTIEEIAKKFGMDATIEPRRNPNGMPYRTATVQNNGGPVGEISIPSAGGSAGGSA [r18_369_TrROS]
SAGGKELVEKLLAEGGVKPVKIETKEGKPKIEVLAPKPELGKKLVEKLKKDPRIEEVNIKPYKPEELSAGGS [r16_671_TrMRF]
SAGGSAGGDYKLEPDDIEPMPDGWYQVEIEIEQRDPDGEPETRDIPVWMPPGQTAKDMAKWLIKSAGGSAGG [r6_329_TrROS]
